# Assay results as given in a protein production outcome set (Wang et al. 2014).
# Test: label from the status in PepcDB records
row,Sequence,protein production
1,FEDFNTNPYQPSKVPASNLLSTMFNVYACPQQNACQEINCMWASFSGQVTATANWSFGKNIFAYYNASEGHNDSSWGRLYGYIYPSFFLVENSTEKKGVIYAMAQLTRVYGMQLLASLQGPIPYTQMKAGETEAPYDNEQTVWHAMFDDLDNAITILKSAATFGVNQDLAVVDQFYKGDCSKWLKFANTLKLRMAIRISGVEPEYAQTKAQEAVLGGVMESVGDSSYDTTNGGINENGYAIVSGWPEVRANACLVSYMNGYNDPRRPAYFTPQTQTAAGGYVGVRSGSAEIPEPTVYANYSKLFIATDKTLPQPVMYAAEAAFLRAEGALKGWNMGGDAKTFYEKGVRLSFEEFGVSGADDYLADATSIPGNYVDNLIAGHTGNNYTNQSSITIKWEDGADDAKKLERVLTQKWIACYPDPMNGWADFRRTGYPRIFPATESMNADCNTGRGQRRLRFTRSEYNNNKANVEAAVSMLSNGKDSNGTDLWWAMKENGTY,not failed
2,MENSLRSTLLDIVKGCIATVALFIAYLELPVIGMLAGVVVPLPALLYDLKRGKWSGLAIVLASALIFMLIAGPAGALLYVLQAGIFSLALPRFLTMGGGPARALASAVAVTVAVITAAAVGYGVTRGVTVEGQVAESLQSSITQAIQLYEKSGVSGADLDELREGMEQAAKSLAQLYPSLFVVGIAMAGGLNLLLLQRFGRRLGLAVPGGSFGKYRNPDHLVWLPICAGFALLAGHDAVTTIALNVLVLTGFLYFIQGMAIIIHLFDRYAAPAFLRYLLYFLLFVQAYLVVAVALFGLLDLWGNFRRPRIPTNL,failed
3,MAKHLGESKQKLLQLMALSCPIRLNNAPRRLAKQARSQRIKRNISKGPGMSLSRCLSGLSNLLHYRREWLRADLRAGLSVAAIQIPIAIAYAQIVGLPPQYGLYACVLPMIVYALIGSSRQLMVGPDAATCAMLGGAVAPLAMGDLQRTVELSMIVTVLVGLMLIAAGIARAGFIASFFSRPILIGYLNGIGLSLIAGQMGKVVGFKIEGDGFILGLADFLQRLGEIHGLTLAVGLASLGLLIWLPRRYPRVPAALLTVALFTLLAGLLGFDRLGVAILGHVPAGMPELSWPKTTLEESKSLLRDALGIATVSFCSAMLTARSFAARHGYAINANHEFIALGLSNLAAGASQGFAISGADSRTAVNDMAGGKSQLVGIIAALAIALILLFFTAPMAWIPQPALGAVLLMAGWGLLDVKSLKQIYRLSRFEFWLCLLTTVSVLGLGVLPGIMFAVTLAILRLLYSIYQPTDAVLGWMPGIEGQVDIRQYPQARTVPGLVVYRFDDAILFFNADYFKMRLLDTVQRESQPEVVLFDAEAVTDIDVSGIAVLREIRETLAAQGIYFAIARARGTFLAMLERSGMTREMDSQLLFGSVRSGIRTYRIWRNSMRGKQ,failed
4,DRVLVPVANPNTEDNLLQLAIILTKSASGTLLPLHILLEENNPISPDAKAKQSQLLSTAEMIAHAAVVNVTPIGRIDESIDKGIARVAEEKQASAIICGWKGYSTYEENLFGGVIDKIVQRSFIPVLVSR,failed
5,MQFYNRQKELKLMELLDQGKPSFFVITGKRRVGKTELIKQFTRNRKALYLFVDSNKSINILMDEFDRLLKEKLDLPDYIKVDEPENFLKFITSYDRDLVIAIDEFQRFQKVYPSFITQLQRYWDMKPDNCRIFLIVSGSSIGMIRKIFIEEQAPLFKRADNILTIKPFTVLETFEMLDGMGIKNPEEKLNLYFLFGGTVYYYRLFEKYQCTGFDDALEKLIFSEFAPLKNEVREILIEEFGKEHSTYYEIISAISQGRCSMSEISDMTHVSSSSLSPYFYDLIDLLGVVEHRIPVMDNPEKSKRGRYFLKDNFFRFYGRFIYPMYSRYMAGNYSPMLEKVRKEWQSYTGKIFEDIVHELLVEKMISDYPELGSWWNRKGDEIDILGVDHRGRKSLVIEVKNKELAENEAREILELTLDKTKLVKGISGQKLKVGIVAQKVKGRKNLEDDGFLVWELEELIPLEHHHHHH,failed
6,MKFAIITDVHGNFDALQTVLDDIDNREDIDKIYNLGDNIGIGHETNKVLDTIFDRDDMEIIAGNHDEAVMSLVNNTPYPEDLKDKFYEHHQWIESHMDEDYYDQLNLLPRYIEKTICGKKLLFIHYEIENQKLETGIEGQPFSPITENSKENIIELFKDKDADLIAFGHNHQMHLYDDNKTIYFNPGAVGLNNGANAVYGIVTINDNEFSIERIKLPYDNEEYLQGFDEKQVPAKQLIFEHFL,failed
7,MANGTTPSVGIALGSGAAKGWAHIGVLNGLAAMGIKPDKVAGCSVGALVGAAYAHDHLPELEEWVRSFSSWDVLGLMDIRWRKGGLIGGDKVFDVLQARIGDVNIENLNRPFAAVATDLYSGQEIWFTEGDLRQAVRASCSMPGILAPVRQGDRWLVDGAVVNPVPVSVSRAMGVDVVIAVDLYGYHSGRIQVLPVSMTSQKNVEAEMDMSARQETGFMDLFARGRDYVSNLTDKFSLGTKSNPGMIAVMSQSMGILEQRHKRARLMGDPPDICIVPEVGNIGTMEFHRADEAIAAGEAAVEKVAHLIEAALWKG,not failed
8,MRQGEPGSPFSYLPVYQGPAVMSLRIFYHPLYSALTLPARHRFPLAKYQALFERLGSLGYPLAEAAPATPEQIKRVHDAAYVEAALAGTLDADAIRQLGFPWSPLLMERTLRSVGATLAASRHALEQGCGLQISGGYHHAHRDVGSGFCLFNDLVIAAQVCLDEGRCEQVLIVDLDVHQGDGSAALCQGRRDIITLSLHGEHNFPRYKPASHMDFPLPSGMADDAYLTTLAEALNLALRLYAPDLILYQAGVDVHKDDELGYLALSDEGIRQRDAMVFDCALRHGLPIAAVPGGGYRRDWQQLIPLHMSLFEEAKKRYG,failed
9,MDQPWNANIHYDALLDAMVPLGTQCVLDVGCGDGLLAARLARRIPYVTAVDIDAPVLRRAQTRFANAPIRWLHADIMTAELPNAGFDAVVSNAALHHIEDTRTALSRLGGLVTPGGTLAVVTFVTPSLRNGLWHLTSWVACGMANRVKGKWEHSAPIKWPPPQTLHELRSHVRALLPGACIRRLLYGRVLVTWRAPVLEHHHHHH,failed
10,MIKVNVMYPYTEGARFDHAYYCDRHMPMVKARLGSACAYYTVEKGLAGSASGAPPAFVAMCAFICDSAENFYAAMYYHGAEILGDIANYTDIAPVLQISEVVVERSDR,not failed
11,MTKKAILLSFLGGFLSLSLEVIWIRLLGFQTFSLPQAFSFTLALFLLGIAFSSFIGKKVCQQGDASINYIGRIFFIAALFDCLAIGLISTTSNSFTNLVYSIFSIFCCALLRGIVFPIVHHLGSEHKKTGAAISNVYFANVLGCTIAPIFIGFYLLDQFTTQQTYLIVISITLIIACFCLTKRVFKAINALFAISVVFATALLPEKMISTLANEEDMQLETLIENKHGIIQVYLDKNQDHLVYGSNVYDGQLNVNLNHNSNGIHRAYLLPAHRK,failed
12,MRGEGRRIGAMSETPEIPGSGYRTGEALLRAGDIAGAITAFRGHLAASPDDALGWFALGSALFFAQRWEETRAAYARAAAIDRAYTLGGLLRPGDVETALDPAPFLGQLPEMSMIIPPAHSGPLAVVGCDSAYFLDFGAALALSMDKAAPGWGLHLHLIAPTTPALDLLERLIGGLRAITLSFSLEHLPPALRAPEAQRTYLACLRFMRLPAILDEQQARAGRVPVVVLDADSLMCKPLLGPDDWRPPGPEGGWRAGWDVALKDSGLFPLGPLWRYSASCVGLAPTDEARAFAAHVATLLARQALTVNGLGWMIDQFALAVAIAARQTQSPAFRLGDWPDRLYRLYENPPDAALWSFCSQSKYDDRLYRDMVRLLLAEMG,failed
13,MGGHFWPPEPYTVFMWGSPWEADSPRVKLRGREKGRQTEGGAFPLVSSALSGDPRFFSPTTPPAEPIVVRLKEVRLQRDDFEILKVIGRGAFSEVAVVKMKQTGQVYAMKIMNKWDMLKRGEVSCFREERDVLVNGDRRWITQLHFAFQDENYLYLVMEYYVGGDLLTLLSKFGERIPAEMARFYLAEIVMAIDSVHRLGYVHRDIKPDNILLDRCGHIRLADFGSCLKLRADGTVRSLVAVGTPDYLSPEILQAV,failed
14,MFAGSIPMYIRVVSITAQSKLQFDMTVTYFENVWSPKVISLGAISAEFVQSNENSGMYIIHYPDKQTAISVFDKIKPEVDEVRTQNRIQITEGKRLFRVD,not failed
15,MEKQNLKNTEVNLIYGVDDDLDLPKKVLFGLQHIFAAFGGIIVVPLVIATSLGFDSKVTTALISASILGSGLATIIQAKGVGKVGARVACIMGTDFTFVSPAISVGSVLGLPGIIGATILGSLFEVILSFFIKPLMKFFPPLVTGTVVALIGLTLLPVSIDWAAGGAGSANYASLENLAVAMFVLVITLLLNNYGKGMISSASILIGIVVGYIVCIPLGLVDFTPVKEASWLSFPKILEFGVTFDAKAVMAFIPAYFVATIGTVGCLKAIGETSNIDIGDKRVAAGVLSDGVGSALGGLVGSCPNTSFSQNIGIISLTKVASRHVAVMAGILLVILGFLPKVAAIITGIPNPVLGGVGIMMFGTVAAAGIRTLSNIKLTERNLLIIAISMGLGLGVTFRPDVIHNLPEAIRMIFSSGISTGTIAALILNAVLKESPTSMEFENMYDEETKAS,failed
16,MISILLFALTSFLIGLSGAMAPGPLLTVTVSDSIRRGFRAGPLLVAGHVLGEALLVTLILMGLGYILRSGPAPAILGTAGGAVLIWMGILGFRDSEDTENIPEGGSILRGAIISFANPYFFLWWGAVGAALMYRGLELAGVLGLLAFLAGHWSSDLTWYSLVSFLSSRKSFRMNGRPYKIVMMILSLFLILFGVYFLIESLKAISGYS,failed
17,ISPGAAGGAEDGFFVPPTKGTSPTQIWCNNSQLPVDHILAGSFETAMRLLHDQVGVIQFGPYKQLFLQTYARGRTTYQALPCLPSMYGYPNRNWKDAGLKNGVPAVGLKLNDLIQRLQLCYQLTTVGKFEEAVEKFRSILLSVPLLVVDNKQEIAEAQQLITICREYIVGLSVETERKKLPKETLEQQKRICEMAAYFTHSNLQPVHMILVLRTALNLFFKLKNFKTAATFARRLLELGPKPEVAQQTRKILSACEKNPTDAYQLNYDMHNPFDICAASYRPIYRGKPVEKCPLSGACYSPEFKGQICRVTTVTEIGKDVIGLRISPLQFR,failed
18,MSLKIAVLDDYQDAVRKLDCFNLLQDHEVKVFNNTVKGVGQLAARVADVEALVLIRERTRVTRQLLDRLPKLKIISQTGRVSRDAGGHIDLDACTDKGVVVLEGKGSPVAPAELTWALVMAAQRRIPQYVASLKHGAWQQSGLKSTTMPPNFGIGRVLKGQTLGIFGYGKIGQLVAGYGRAFGMNVLVWGRENSKERARADGFAVAESKEALFEQSDVLSVHLRLNDETRSIITVADLTRMKPTALFVNTSRAELVEENGLVTALNRGRPGMAAIDVFETEPILQGHTLLRMENCICTPHIGYVERESYEMYFGIAFQNILDVLQGNVDSVANPTALAPALIRAEGHHHHHH,not failed
19,MEDGKQAINEGSNDASPDLDVNGTILMNNEDFSQWSVDDVITWCISTLEVEETDPLCQRLRENDIVGDLLPELCLQDCQDLCDGDLNKAIKFKILINKMRDSKLEWKDDKTQEDMITVLKNLYTTTSAKLQEFQSQYTRLRMDVLDVMKTSSSSSPINTHGVSTTVPSSNNTIIPSSDGVSLSQTDYFDTVHNRQSPSRRESPVTVFRQPSLSHSKSLHKDSKNKVPQISTNQSHPSAVSTANTPGPSPNEALKQLRASKEDSCERILKNAMKRHNLADQDWRQYVLVICYGDQERLLELNEKPVIIFKNLKQQGLHPAIMLRRRGDFEEVAMMNGSDNVTPGGRL,failed
20,MIDLAVLPIYLTAVIALLLLPGPDMLLIASSSMSYGRKVGLFASLGNATSGLILTLLAAMGVSTLIAMSPVALKVLHLLGGAYLLKMGWDCLRAEASSAPELDQKNKMASTYYQRALMSNLLNPKALVFFVMFLPQFVSSNITASSGEQMLALGLLLNVLGLLFNLLLVALAGTLGKGLLENEKFRTYQHKLMGLVFVILALWMLSSFVL,failed
21,MAPVLENRRARHDYEILETYEAGIALKGTEVKSLRAGKVDFTGSFARFEDGELYLENLYIAPYEKGSYANVDPRRKRKLLLHKHELRRLLGKVEQKGLTLVPLKIYFNERGYAKVLLGLARGKKAYEKRREDKKEAVRRALEEL,not failed
22,MEMKKMKKMDKMELLKQIMAVDFTIIDLSLYLNTHPMDKEAIAKHNAFVAQSHMLKGQYQKYYGMLTATNSCSPYPWQWIKEPWPWEYDANFRL,failed
